# Measured values from patent US20260035468A1 (INSTITUT NATIONAL DE LA SANT ET DE LA RECHERCHE M DICALE, published 2026).
# Target: T1, β8 chain of αvβ8 integrin (Itgβ8) expressed on human tumor Treg cells (human, UniProt P26012 43-769; P06756 31-1048)
# T1 construct: whole, on cells; also called Itgb8 chain on human Treg cells; human Itgβ8
# Experiment: staining of cells of one fresh human colonic tumor (data not shown)
# T1 sequence (P26012 43-769, chain 1 of 2): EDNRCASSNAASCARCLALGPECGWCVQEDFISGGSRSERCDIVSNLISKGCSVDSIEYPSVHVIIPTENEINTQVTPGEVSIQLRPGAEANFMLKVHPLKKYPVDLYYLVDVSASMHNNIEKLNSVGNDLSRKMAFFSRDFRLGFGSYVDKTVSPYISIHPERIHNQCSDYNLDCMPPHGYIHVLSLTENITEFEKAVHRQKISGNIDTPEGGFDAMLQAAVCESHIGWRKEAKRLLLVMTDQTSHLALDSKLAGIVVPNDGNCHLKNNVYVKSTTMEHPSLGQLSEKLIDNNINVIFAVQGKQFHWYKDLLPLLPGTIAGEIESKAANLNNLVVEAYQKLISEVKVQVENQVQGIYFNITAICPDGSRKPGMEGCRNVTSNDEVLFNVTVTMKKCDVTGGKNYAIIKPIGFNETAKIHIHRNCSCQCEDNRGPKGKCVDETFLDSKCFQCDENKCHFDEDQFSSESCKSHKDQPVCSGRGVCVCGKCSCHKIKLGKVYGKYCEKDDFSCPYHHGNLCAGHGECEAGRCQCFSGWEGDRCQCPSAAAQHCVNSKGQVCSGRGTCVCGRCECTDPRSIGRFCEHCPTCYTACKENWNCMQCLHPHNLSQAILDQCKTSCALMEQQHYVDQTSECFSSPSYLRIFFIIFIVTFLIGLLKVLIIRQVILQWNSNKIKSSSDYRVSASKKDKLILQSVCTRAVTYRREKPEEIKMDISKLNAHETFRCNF
# T1 sequence (P06756 31-1048, chain 2 of 2): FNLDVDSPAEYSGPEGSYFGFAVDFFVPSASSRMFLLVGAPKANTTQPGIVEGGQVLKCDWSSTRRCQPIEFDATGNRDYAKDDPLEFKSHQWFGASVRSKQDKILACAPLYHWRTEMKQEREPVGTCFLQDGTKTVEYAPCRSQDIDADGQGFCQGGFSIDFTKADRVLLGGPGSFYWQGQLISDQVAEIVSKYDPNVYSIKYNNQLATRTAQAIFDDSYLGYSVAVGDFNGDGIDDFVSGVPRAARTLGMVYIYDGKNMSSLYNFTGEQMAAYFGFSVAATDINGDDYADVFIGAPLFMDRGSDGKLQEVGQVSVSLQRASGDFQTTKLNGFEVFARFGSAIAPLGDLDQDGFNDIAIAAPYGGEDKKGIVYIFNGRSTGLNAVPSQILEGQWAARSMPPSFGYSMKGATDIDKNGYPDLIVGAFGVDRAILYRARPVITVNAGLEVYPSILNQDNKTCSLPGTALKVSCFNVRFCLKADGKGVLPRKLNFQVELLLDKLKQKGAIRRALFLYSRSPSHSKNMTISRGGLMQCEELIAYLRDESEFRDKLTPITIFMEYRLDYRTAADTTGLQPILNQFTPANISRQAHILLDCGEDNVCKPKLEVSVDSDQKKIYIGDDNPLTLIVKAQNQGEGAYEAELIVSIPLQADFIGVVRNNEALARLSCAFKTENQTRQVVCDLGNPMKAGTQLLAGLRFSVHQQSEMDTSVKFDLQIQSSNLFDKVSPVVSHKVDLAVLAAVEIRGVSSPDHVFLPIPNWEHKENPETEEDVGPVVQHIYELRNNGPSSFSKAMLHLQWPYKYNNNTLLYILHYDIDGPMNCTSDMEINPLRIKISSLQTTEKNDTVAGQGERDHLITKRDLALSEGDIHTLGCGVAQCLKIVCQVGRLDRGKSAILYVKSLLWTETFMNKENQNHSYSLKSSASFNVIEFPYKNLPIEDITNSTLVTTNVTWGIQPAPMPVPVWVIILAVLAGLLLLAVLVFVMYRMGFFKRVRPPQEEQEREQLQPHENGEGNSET
binder,measurement,value
"Mab 1G10G4 (antibody, V domains shown, Mouse hybridoma antibody tested as clone supernatant; also called 1G10G4 mAb; clone 3) VH: QVQLQQSGAELARPGASVKMSCKASGYTFTSYTMHWVKQRPGQGLEWIGYINPSSGYTKYNQKFKDKATLTADKSSSTAYMQLSSLTSEDSAVYYCARAEGLRAWFAYWGQGTLVTVSA VL: DIVMTQSQKFMSTSVGDRVSVTCKASQNVGTNVAWYQQKPGQSPKALIYSASYRYSGVPDHFTGSGSGTDFTLTIINVQSEDLAEYFCQQYNSYPYTFGGGTKLEIK",binding result,binds
"Mab 9B2 (antibody, V domains shown, Mouse hybridoma antibody tested as clone supernatant; also called 9B2 mAb; clone 1) VH: QVQLQQSGAELAKPGASVKLSCKASGYTFTRYWMHWVKQRPGQGLEWIGHINPSSGYTKYNQKFKDKATLTADKSSSTAYMQLSSLTYEDSAVYYCAREVYYYGSSYGDFDYWGQGTTLTVSS VL: QIVLTQSPAIMSASPGEKVTISCSASSSVSYMYWYQQKPGSSPKPWIYRTSNLASGVPARFSGSGSGTSYSLTISSMEAEDAATYYCQQYHSYPLTFGAGTKLELK",binding result,binds
